Test results: the nanobody polyreactivity screen of Harvey et al. (2022)

Experiment: yeast display, Sf9 membrane polyspecificity reagent, FACS + sequencing; frameworks hold sequencing errors
Summary of the method: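 Nanobodies came from a synthetic yeast display library in Saccharomyces cerevisiae BJ5465, induced with galactose for 36–48 hours and stained for 1 hour at 4 °C with 10% biotinylated, detergent-solubilized Sf9 membrane reagent. Cells were enriched on streptavidin microbeads and then FACS-sorted, with low and high (top ~1%) gates set on anti-HA fluorescence for expression and streptavidin fluorescence for reagent binding. Each polyreactivity label reflects the gate a clone came from. Genes were amplified by colony PCR, sequenced by MiSeq 2 × 250 and filtered by CDR length.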

QVQLVESGGGLVQAGGSLRLSCAASGSIFGGYAMGWYRQAPGKEGELVAAISWSSSSTYYADSVKGRFTMSRDNAKNTVYLQMNSLKPEDTAVYYCATGIYPQTSDYDYWGQGTQVTVSS
polyreactivity (PSR sort gate): low polyreactivity

QVQLVESGGGLVQAGGSLGLSCAASGNMFGRYAMGWYRQAPGKEREYVATITYSGGSTYYADSVKGPFTISRDNAKNTVYLQMNSLKQEDTAVYYCAARVGRPTLVAAKYDYWGQGTQVTVSS
polyreactivity (PSR sort gate): high polyreactivity

QVQLEESGGGLVQAGGSLRLSCAASGSIFGLYAMGWYRQAPGKERELVAAISARGGSTYYADSVKGRFTISRDNAKNTVYLQMNSLKPEDTAVNYCATRQVSAYSYIYDYWGQGTQVTVSS
polyreactivity (PSR sort gate): high polyreactivity

QDQLVESCGGLVQAGGSLRLSCAASGGIINGYTMGWYRQAPGKETDLVAAITGSGGSTYYADSVKGRYTISRDNAKNTVYLQMNSLKPEETAVYYCARDYHARPNCPRSDDYDYWGQGTQVTVSS
polyreactivity (PSR sort gate): low polyreactivity

QVQLVESGGGLVQAGGSLRLSCAASGRILSGTPMGLYRQAPRKERELVAAITNAGITKYADSVKGRFTISRDNAKNTVYLQMNSLKPEDTAVYYCATDRYAYKLYDYWGQGTKVTVSS
polyreactivity (PSR sort gate): low polyreactivity

QVQLQESGGGLVQAGGSLRLSCAASGSIFKVVDMGLYRQAPAKEREFVATIGEGGNTYYADSVKGRFTISRDNAKNTVYLQMNSLKPEDTAVYYCNVDIGVYAYESDYWGQGTQVTVSS
polyreactivity (PSR sort gate): low polyreactivity

QVQLVESGGGLVQAGGSLRLSCAASGRTFRGNAMGWYRQAPGKERELVAAISGSGGRTYYADSVKGRFTISRDNAKNTVYLKMNSLKPEDTAVFYCAAKRGKTYQRFDYWGQGTQVTVSS
polyreactivity (PSR sort gate): high polyreactivity

QVQLVESGGGLVQAGGSLRLSCAASGFIFRWYAMGWYRQAPGKERELVASINWSGSRTNYADSVKGRFTISRDNAKYTVYLQMNSLKPEDTAVYYCNAYGGLQYDYWGQGTQVSVSS
polyreactivity (PSR sort gate): high polyreactivity

QVQLVESGGGLVQAGGSLRLSCAASGRIFLSYAMGWYRQAPGNEREFVAAITSSGGSTSYADSVKGRFTISRDNAKNTVYLQMNSLKPEDTAVYYCNDRAYIFGQMKYDYWGQGTQVTVSS
polyreactivity (PSR sort gate): low polyreactivity

QVQLVESGGGLVQAGGSLRLSCAASGSTVKYAMGWYRQAPGKDRELVASIRRSGGSTYYADSVKGRFTISRDNAMNTVYLQMNRLKPEDTAVYYCNARFPYNWRYDYWGQGTQVTVSS
polyreactivity (PSR sort gate): high polyreactivity

QVQLVESGGGLVQAGGSLRLSCAASGRIFYVNGMGWYRQAPGNERELVAAIRISGGRTYYADSVKGRFTISRDYAKYTVYFQMNSLKPEDTAVYFCAKRYYYPYAGYDYWGQGTQVTVSS
polyreactivity (PSR sort gate): high polyreactivity

QVQLVESGGGLVQAGGSLRLSCAASGATFGRNAMGWYRQAPGKERELVAAISWSASRTSYADSVKGRFTISRDNAKNTVYLQMNSLKPEDTAVYYCAARIWRSYYPYDYWGQGTQVTVSS
polyreactivity (PSR sort gate): high polyreactivity

QVQLEESAGGLVQAGGSLRLSCAASGSIFRVYGMGWYRQAPGKVTELVASITYRGGNTYYADSVKGRFTISRDNAKNTVYVQMNSLKPEDTAVFDCARSGYQKVGGFRSDYWGQGTEVTVSS
polyreactivity (PSR sort gate): low polyreactivity

QVQIVESGRGLVQAGGSLRLSCAASGSIFHPKAMGWYRQAPGKERELVAAITSGGGSTYYADSVKVRYTISRDNAKNTVYLQMNSLKPEDTAVYYCNKVFVLPYKFVAWFDYWGQGTQVTVSS
polyreactivity (PSR sort gate): low polyreactivity

QVQLVESGGGLVQAGGSLRLSCAASGFTSYDNAMGWYRPAPGKERELVAASTWDGGSTYYADSVKGRFTISRDNAKNTVDLQMNSLKPEDTAVYDCAADLADFYPRYNYWGQGTQVTVSS
polyreactivity (PSR sort gate): low polyreactivity

QVQLVESGGGLVHAGGSLRLSCAASGRTLGGYAMGWYRQAPGKERELVAAISWNGGSTYYADSVKVRFTISRDNAKNTVYFQMNCLKPEDSAVYYCARVYSGPKAGAYDYWGQGTQVTVSS
polyreactivity (PSR sort gate): high polyreactivity

QVQLVESGGGLVQAGGSLRLSCGASGSTFWYYAMGWYRPAPGKERELVAAISSRGGSTYYADSVKGRFTISRDKAKNTVYFQLNSLKPEDTAVYYCAILGSYGGGQRRKYDSWGQGTQVTVSS
polyreactivity (PSR sort gate): high polyreactivity

QVQLVESGGRLVQAGGSLRLSCAASGSTIKSYAMGWYRQAPGKERELVAGITSGDSTNYADSVKGRFTISRDNAKNTVYFQMNSLKPDDTAVYYCNAVTQARYYYWGQGYQVTVSS
polyreactivity (PSR sort gate): low polyreactivity

QFQLVESGGGLVQAGGSLRLSCAASGRTFGRYTMGWYRPAPGKEREFVARINWNGGGTYYEDSVKGRFTISRDNAKNTVYLQMNSLKPEDTEVYYCNARKRGARFILGYDYSGQGTQVTVSS
polyreactivity (PSR sort gate): low polyreactivity

QVQLVESGGGLVQAGGSLRLSCAASGRIFDRYVMGWYRQAPVKERALVAAISDGGSTYYADSVKGRFTISRDNAKNTVYLQMISLKPEDTAVYYCNAAFYPNENYYLIYDYWGQGTQVTVSS
polyreactivity (PSR sort gate): low polyreactivity

QVQLVESGGGLVQAGGSLRLTCAASGFIYYYNAMGWYRQAPGKERQLVAAISASGDRTYYADSVKGRFTISRDNAKNTVYLQMNSLKPEDTAVYYCAARSQGARYSSRRRFGDYWGQGTQVTVSS
polyreactivity (PSR sort gate): high polyreactivity

QVQLVESGGGLVQAGGSLRLSCAASGYTFLKYAMGWYRQAPGKERELVAAISGRGGRTYYADSVKGRFTISRDNAKNTVYLQMNSLKPEDTAVYYCNAVRNSPDDYWGQGTQVTVSS
polyreactivity (PSR sort gate): high polyreactivity

QVQLVESGGGLVQAGGSLRLSCAASGSTFTSYAMGWYRQAPGKERELVAAITYGSGTTYADSVKGRFTISRDNAKNTVYLQMNSLKPEDTAVYYCAADFYYPVLGHGFPTYEYDYWGQGTQVTVSS
polyreactivity (PSR sort gate): low polyreactivity

QVQLGESGGGLVQAGGSLRLSCAASGFTFPVYAMGWYRQAPGKERELVAAISTSAGSTYYADSVKGRFTISRDNAKNTVYLQMNSLKPEDTAVYYCAARRRAFGSTYNYWGQGTQVTVSS
polyreactivity (PSR sort gate): high polyreactivity

QVQLVESAGGLVQAGGSLRLSCAASGTFYYYAMGWYRQAPGKERELVAAISNGDSTTYADSVKGRFTISRDNAKNTVYLQMNSLNPEDTAVYYCAAYRYTPRTSRGYYYWGQGTQVTVSS
polyreactivity (PSR sort gate): low polyreactivity

QVQLVESGGGLVQAGGSLRLSCAASGRIFRRNAMGWYRQAPGKERELVASITRGGRTSYADSVKGRFTISRDNAKNTVYLQMNSLKPEDTAVYYCNARSYQSARFRGGYWGQGTQVTVSS
polyreactivity (PSR sort gate): high polyreactivity

QVQLVESGGGLVQAGGSLRLSCAASGRIFKRYAMGWYRQAPGKERELVATITNGGRTSYADSVKGRFTISRDNAKNTVYLQMNSLKPEDTAVYYCNAYGQTSRPLVYGWRYDYWGQGTQVTVSS
polyreactivity (PSR sort gate): high polyreactivity

QVQLVESGGGLVQAGGSLRLSCAASGITFRDNGMGWYRQAPGKESELVAAITSGGSTYYADSVKGRFTISRDNAKNTVYLQMNSLKPEDTAVYYCAAKRIKRRGWRQLSWYDSWGQGTQVTVSS
polyreactivity (PSR sort gate): high polyreactivity

QVQLVESGGGLVQAGGSLRLSCAASGRTITYYAMGWYRQAPGKERELVAAISSAGRTNYAVSVKGRFTISRDNAKNTVYLQMNCLKPEDTAVYYCAKRYGWASGYWNSNYGYLYDYWGQGTLVTVSS
polyreactivity (PSR sort gate): high polyreactivity

QVQLQESVVCLVQALGSLRLSCAASGNISDYYDMGWYGHAPGKERKFVAGIDFGAITNYADSVKGRFTISRDNAKNTEYMQMSSLKPEDTAVYYCAAGVYDWYAYDYWGQGTQVTVSS
polyreactivity (PSR sort gate): high polyreactivity

QVQLVESGGGLVQAGGSLRLSCAASGSIFRIYAKGWYRQAPGKERELVAAISSTGSTSYADSVKGRFTISRDNAKNTVYLQMNSLKPEDTAVYYCAAGVYALRRDYWVQGTQVTVSS
polyreactivity (PSR sort gate): low polyreactivity

QVQLVESGGGLVQAGGSLRLSCAASGRILGSYAMGWYRQAPGKERELVAAISRGGGRTYYADSVKGRFTISRDNAKNTVYLQMNSLNPEDTAVYYCNAPVTGSSSYFSQHFDYWGQGTQVTVSS
polyreactivity (PSR sort gate): high polyreactivity

QVHLVESGGGLVQAGGSLRLSCAASGRIINYYDMGWYRQAPGKERELVAAISRSGGRTYYADSVKGRFTISRDNAKNTVYLQMNSLKPEDNAVYYCAASDYQRYQPTPQYTYYYWGQGTQVTVSS
polyreactivity (PSR sort gate): high polyreactivity

QVQLVESGGGLVQAGGSLRLSCAASGRIFRWNAMGWYRQAPGKERELVAAISRSGGSTYYADSVKRRFTISRDNAKNTVYLQMNSLKPEDTAVYYCNTRFSTFTAPGYYYWGQGTQVTVSS
polyreactivity (PSR sort gate): high polyreactivity

QVQLVESGGGLVQAGGSLRLSCAASGIIFIWNTMGWYRQAPGKEREFVAAISRSGSGTSYADSVKGRFTISRDNAKNTVYLQMNSLKPEDTAVYYWDARLEWPYDMYYWGQGTQVTVSS
polyreactivity (PSR sort gate): low polyreactivity

QGQRVESGGGLVQAGGSLRLSCAASGFIFWDYDMVWYRQAPGKEREMVAAISDSGGDTYYADSVKGRFTISRDNSKNTVYLQMHSLKREDTAVIYCAADVELWVFRGQQFDYWGQGTQVTVSS
polyreactivity (PSR sort gate): low polyreactivity

QVQLLESGGGLVQAGGSLRLSCAASGSIFLTYAMGWYRQAPGKERELVAAISSSGGSTYYADSVKGRFTISRDNSKNTVYLQMNSLKPEVTAVYYCNAAYHFRRTLGRDHWGQGTEVTVSS
polyreactivity (PSR sort gate): low polyreactivity

QVQLVESGGGLVQAGGSLRLSCAASGSTFFDYAMGWYRKAPGKERELVAAISRSGDTNYADSVKGRFTISRDNAKNTVYLQMKSLKPEDTAVYYCAKDWAYRRHWVGFYYWGQGTQVTVSS
polyreactivity (PSR sort gate): low polyreactivity

QVQLVESGGGLVQAGGSLRLSCAASGSIFKPYAMGWSRQAPGKERELVAAISRSGSTYYADSVKGRFTISRDNAKNTVYLQMNSLKPEDTAVYYCAKDVRPNYYAAFNYWGQGTQVTVSS
polyreactivity (PSR sort gate): low polyreactivity

QVQLVESGGGLVQAGGSLRLSCAASGRIFPFYAMVWYRQAPGKERELVAAITTSGGSTYYADSVKGRFTISRDNAKNTVYLQMNRLKPEDTAVYYCNKRLGLELAPWEMNYWGQGTQVTVSS
polyreactivity (PSR sort gate): low polyreactivity

QVQLVESGGGLVQAGGSLRLSCAASGSIFTPYAMGWYRQAPGKERELVAVISWRVDSTYYADSVKGRFTISRDNAKNTVYLQMNSLKPEDTAVYYCAAKSYLLAPFGSGNRWSRYDYWGQGTQVTVSS
polyreactivity (PSR sort gate): high polyreactivity

QVQLVESGGGLVQAGGSLRLSCAASGRTFKDYAMGWYRQAPGKERELVAGINGSGGSTYYADSVKGRFTISRDYAKNTVYLQMNSLKPEDTAVYYCNADFGYWWDGRRYDYWGQGTQVTVSS
polyreactivity (PSR sort gate): low polyreactivity

QVQLVESGGGLVQAGGSLRLSCAASGSTVTYNTMGWYIQAPGKERELVAAISSGGSTYYADSVKGRFTISRDNAKNTVYLQMNSLKPEDTAVYYCAAEHYDYPYDYYCGQGTQVTVSS
polyreactivity (PSR sort gate): high polyreactivity
